Results taken from publication PMC6125358, “Mapping the Interface of a GPCR Dimer: A Structural Model of the A2A Adenosine and D2 Dopamine Receptor Heteromer” (Frontiers in Pharmacology, 2018).

B1: 3xHA-D2R^GFP2 (human D2 dopamine receptor, wild type) [human] / human adenosine receptor fused to Renilla luciferase (A2AR^Rluc) [human] (parent)
chain 1: MPIMGSSVYITVELAIAVLAILGNVLVCWAVWLNSNLQNVTNYFVVSLAAADIAVGVLAIPFAITISTGFCAACHGCLFIACFVLVLTQSSIFSLLAIAIDRYIAIRIPLRYNGLVTGTRAKGIIAICWVLSFAIGLTPMLGWNNCGQPKEGKNHSQGCGEGQVACLFEDVVPMNYMVYFNFFACVLVPLLLMLGVYLRIFLAARRQLKQMESQPLPGERARSTLQKEVHAAKSLAIIVGLFALCWLPLHIINCFTFFCPDCSHAPLWLMYLAIVLSHTNSVVNPFIYAYRIREFRQTFRKIIRSHVLRQQEPFKAAGTSARVLAAHGSDGEQVSLRLNGHPPGVWANGSAPHPERRPNGYALGLVSGGSAQESQGNTGLPDVELLSHELKGVCPEPPGLDDPLAQDGAGVS
chain 2: MDPLNLSWYDDDLERQNWSRPFNGSDGKADRPHYNYYATLLTLLIAVIVFGNVLVCMAVSREKALQTTTNYLIVSLAVADLLVATLVMPWVVYLEVVGEWKFSRIHCDIFVTLDVMMCTASILNLCAISIDRYTAVAMPMLYNTRYSSKRRVTVMISIVWVLSFTISCPLLFGLNNADQNECIIANPAFVVYSSIVSFYVPFIVTLLVYIKIYIVLRRRRKRVNTKRSSRAFRAHLRAPLKGNCTHPEDMKLCTVIMKSNGSFPVNRRRVEAARRAQELEMEMLSSTSPPERTRYSPIPPSHHQLTLPDPSHHGLHSTPDSPAKPEKNGHAKDHPKIAKIFEIQTMPNGKTRTSLKTMSRRKLSQQKEKKATQMLAIVLGVFIICWLPFFITHILNIHCDCNIPPVLYSAFTWLGYVNSAVNPIIYTTFNIEFRKAFLKILHC

Variants of: B1
Experiment: BRET2 saturation assay
Settings: with human A2A adenosine receptor fused to Renilla luciferase (A2AR^Rluc) [human]; height of the fitted saturation curve read at x = 6 AU (GFP2-GFP2_0)/Rluc; co-expressed in cells; DeepBlueC substrate, 10 min incubation; read off a plot

Row | response (netBRET2 ratio) | Variant
1 | 0.048 | chain 2 MDPLNLSWYDDDLERQNWSRPFNGSDGKADRPHYNYYATLLTLLIAVIVFGNVLVCMAVSREKALQTTTNYLIVSLAVADLLVATLVMPWVVYLEVVGEWKFSRIHCDIFVTLDVMMCTASILNLCAISIDRYTAVAMPMLYNTRYSSKRRVTVMISIVWVLSFTISCPLLFGLNNADQNECIIANPAFVVYSSIVSFYVPFIVTLAVYIAIYIVLRRRRKRVNTKRSSRAFRAHLRAPLKGNCTHPEDMKLCTVIMKSNGSFPVNRRRVEAARRAQELEMEMLSSTSPPERTRYSPIPPSHHQLTLPDPSHHGLHSTPDSPAKPEKNGHAKDHPKIAKIFEIQTMPNGKTRTSLKTMSRRKLSQQKEKKATQMLAIVLGVFIICWLPFFITHILNIHCDCNIPPVLYSAFTWLGYVNSAVNPIIYTTFNIEFRKAFLKILHC [chain 2 L207A K211A]
2 | 0.056 | chain 2 MDPLNLSWYDDDLERQNWSRPFNGSDGKADRPHYNYYATLLTLLIAVIVFGNVLVCMAVSREKALQTTTNYLIVSLAVADLLVATLVMPWVVYLEVVGEWKFSRIHCDIFVTLDVMMCTASILNLCAISIDRYTAVAMPMLYNTRYSSKRRVTVMISIVWVLSFTISCPLLFGLNNADQNECIIANPAFVVASSIVSFYVPFIVTLLVYIKIYIVLRRRRKRVNTKRSSRAFRAHLRAPLKGNCTHPEDMKLCTVIMKSNGSFPVNRRRVEAARRAQELEMEMLSSTSPPERTRYSPIPPSHHQLTLPDPSHHGLHSTPDSPAKPEKNGHAKDHPKIAKIFEIQTMPNGKTRTSLKTMSRRKLSQQKEKKATQMLAIVLGVFIICWLPFFITHILNIHCDCNIPPVLYSAFTWLGYVNSAVNPIIYTTFNIEFRKAFLKILHC [chain 2 Y192A]
